Patent publication US10253076B2, “Peptides and combination of peptides for use in immunotherapy against ovarian cancer and other cancers” (immatics biotechnologies GmbH, priority 2015, dated 2019)

Biological target: HLA-A*02:01 (Homo sapiens, UniProt P04439, D140Y/D185E/D98H/E176V/E277Q/G131W/G231S/I119V/I121R/I166T/I218V/L300P/L318F/N151K/N90K/P208A/P217A/Q86G/Q94H/R138H/R169H/T345S)
Assay: MHC binding assay (UV-ligand exchange, beta2m ELISA, peptide exchange yield)
Details: binding of HLA-class I restricted peptides to HLA-A*02:01, ranged by peptide exchange yield (UV-ligand exchange, β2m ELISA)
Procedure, shortened: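 Peptide–HLA-A*02:01 complexes made by UV-mediated exchange of a photocleavable peptide with the test peptide. Exchange products diluted 100-fold on streptavidin-coated plates, 1 h at 37°C, then HRP anti-β2m 1 h at 37°C; TMB read at 450 nm to give exchange yield.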

| Substance | Peptide exchange |
| --- | --- |
| 49 (YLPAVFEEV; listed as Homo sapiens) [compound 49] | ″+++″ (≥50% = +++) |
| 370 (SLLQDLVSV; listed as Homo sapiens) [compound 370] | ″+++″ (≥50% = +++) |
| 184 (YLMDINGKMWL; listed as Homo sapiens) [compound 184] | ″+++″ (≥50% = +++) |
| 237 (ALLEASGTLLL; listed as Homo sapiens) [compound 237] | ″++++″ (≥75% = ++++) |
| 67 (TLLAEALVTV; listed as Homo sapiens) [compound 67] | ″+++″ (≥50% = +++) |
| 97 (SLINGSFLV; listed as Homo sapiens) [compound 97] | ″+++″ (≥50% = +++) |
| 310 (FLVDTPLARA; listed as Homo sapiens) [compound 310] | ″++++″ (≥75% = ++++) |
| 548 (ALWENPESGEL; listed as Homo sapiens) [compound 548] | ″++″ (≥20% = ++) |
| 304 (MTLGQIYYL; listed as Homo sapiens) [compound 304] | ″+++″ (≥50% = +++) |
| 327 (GLAPFTEGISFV; listed as Homo sapiens) [compound 327] | ″+++″ (≥50% = +++) |
| 573 (ILVANAIVGV; listed as Homo sapiens) [compound 573] | ″+++″ (≥50% = +++) |
| 59 (IMEDIILTL; listed as Homo sapiens) [compound 59] | ″+++″ (≥50% = +++) |
| 14 (AAYGGLNEKSFV; listed as Homo sapiens) [compound 14] | ″+++″ (≥50% = +++) |
| 561 (YLQLTQSEL; listed as Homo sapiens) [compound 561] | ″+++″ (≥50% = +++) |
| 568 (TLYDIAHTPGV; listed as Homo sapiens) [compound 568] | ″++++″ (≥75% = ++++) |
| 558 (GLLENIPRV; listed as Homo sapiens) [compound 558] | ″+++″ (≥50% = +++) |
| 73 (NIFDLQIYV; listed as Homo sapiens) [compound 73] | ″+++″ (≥50% = +++) |
| 300 (ALLGQTFSL; listed as Homo sapiens) [compound 300] | ″+++″ (≥50% = +++) |
| 269 (RVLEVGALQAV; listed as Homo sapiens) [compound 269] | ″++″ (≥20% = ++) |
| 635 (SLDSTLHAV; listed as Homo sapiens) [compound 635] | ″+++″ (≥50% = +++) |
| 174 (ALAQYLITA; listed as Homo sapiens) [compound 174] | ″+++″ (≥50% = +++) |
| 322 (TLMTSLPAL; listed as Homo sapiens) [compound 322] | ″+++″ (≥50% = +++) |
| 142 (FLFATPVFI; listed as Homo sapiens) [compound 142] | ″+++″ (≥50% = +++) |
| 355 (SIQQSIERLLV; listed as Homo sapiens) [compound 355] | ″++″ (≥20% = ++) |
| 457 (SLLPGNLVEKV; listed as Homo sapiens) [compound 457] | ″+++″ (≥50% = +++) |
| 463 (SLVESHLSDQLTL; listed as Homo sapiens) [compound 463] | ″+++″ (≥50% = +++) |

| Substance | Peptide exchange |
| --- | --- |
| 471 (YLYNNMIAKI; listed as Homo sapiens) [compound 471] | ″+++″ (≥50% = +++) |
| 107 (FLQPVDDTQHL; listed as Homo sapiens) [compound 107] | ″+++″ (≥50% = +++) |
| 316 (ILLERLWYV; listed as Homo sapiens) [compound 316] | ″+++″ (≥50% = +++) |
| 341 (SQIALNEKLVNL; listed as Homo sapiens) [compound 341] | ″+++″ (≥50% = +++) |
| 317 (SLAALVVHV; listed as Homo sapiens) [compound 317] | ″+++″ (≥50% = +++) |
| 526 (RLAEVGQYEQV; listed as Homo sapiens) [compound 526] | ″++″ (≥20% = ++) |
| 240 (ILLEQAFYL; listed as Homo sapiens) [compound 240] | ″+++″ (≥50% = +++) |
| 399 (YLFEPLYHV; listed as Homo sapiens) [compound 399] | ″+++″ (≥50% = +++) |
| 496 (FLVEKQPPQV; listed as Homo sapiens) [compound 496] | ″+++″ (≥50% = +++) |
| 76 (ILIDSIYKV; listed as Homo sapiens) [compound 76] | ″+++″ (≥50% = +++) |
| 564 (TVTNAVVTV; listed as Homo sapiens) [compound 564] | ″+++″ (≥50% = +++) |
| 101 (ILVGGGALATV; listed as Homo sapiens) [compound 101] | ″+++″ (≥50% = +++) |
| 170 (RLQETLSAA; listed as Homo sapiens) [compound 170] | ″+++″ (≥50% = +++) |
| 121 (GVVDPRAISVL; listed as Homo sapiens) [compound 121] | ″++″ (≥20% = ++) |
| 149 (NLLELFVQL; listed as Homo sapiens) [compound 149] | ″+++″ (≥50% = +++) |
| 359 (YLLPESVDL; listed as Homo sapiens) [compound 359] | ″+++″ (≥50% = +++) |
| 168 (KILDADIQL; listed as Homo sapiens) [compound 168] | ″++++″ (≥75% = ++++) |
| 77 (ILVEADGAWVV; listed as Homo sapiens) [compound 77] | ″++++″ (≥75% = ++++) |
| 504 (GLSDGNPSL; listed as Homo sapiens) [compound 504] | ″++″ (≥20% = ++) |
| 221 (ALYEEGLLL; listed as Homo sapiens) [compound 221] | ″++″ (≥20% = ++) |
| 187 (RQISIRGIVGV; listed as Homo sapiens) [compound 187] | ″+++″ (≥50% = +++) |
| 450 (FMIDASVHPTL; listed as Homo sapiens) [compound 450] | ″+++″ (≥50% = +++) |
| 337 (HLLSELEAAPYL; listed as Homo sapiens) [compound 337] | ″++++″ (≥75% = ++++) |
| 266 (KITDTLIHL; listed as Homo sapiens) [compound 266] | ″+++″ (≥50% = +++) |
| 197 (ALGPEGGRV; listed as Homo sapiens) [compound 197] | ″++″ (≥20% = ++) |
| 394 (LLAVIGGLVYL; listed as Homo sapiens) [compound 394] | ″+++″ (≥50% = +++) |

| Substance | Peptide exchange |
| --- | --- |
| 51 (LLPDLEFYV; listed as Homo sapiens) [compound 51] | ″++++″ (≥75% = ++++) |
| 519 (GLLHLTLLL; listed as Homo sapiens) [compound 519] | ″+++″ (≥50% = +++) |
| 444 (GLLRDEALAEV; listed as Homo sapiens) [compound 444] | ″+++″ (≥50% = +++) |
| 206 (VLQEGKLQKLAQL; listed as Homo sapiens) [compound 206] | ″+++″ (≥50% = +++) |
| 176 (YLMEGSYNKVFL; listed as Homo sapiens) [compound 176] | ″++″ (≥20% = ++) |
| 314 (ALIAEGIALV; listed as Homo sapiens) [compound 314] | ″+++″ (≥50% = +++) |
| 285 (QLLHVGVTV; listed as Homo sapiens) [compound 285] | ″+++″ (≥50% = +++) |
| 524 (ALIENLTHQI; listed as Homo sapiens) [compound 524] | ″++″ (≥20% = ++) |
| 258 (ELAERVPAI; listed as Homo sapiens) [compound 258] | ″++″ (≥20% = ++) |
| 220 (LLQKFVPEI; listed as Homo sapiens) [compound 220] | ″++″ (≥20% = ++) |
| 609 (ALWKQLLEL; listed as Homo sapiens) [compound 609] | ″+++″ (≥50% = +++) |
| 257 (SIFSAFLSV; listed as Homo sapiens) [compound 257] | ″+++″ (≥50% = +++) |
| 619 (ALQDRVPLA; listed as Homo sapiens) [compound 619] | ″+++″ (≥50% = +++) |
| 556 (FLTDLEDLTL; listed as Homo sapiens) [compound 556] | ″+++″ (≥50% = +++) |
| 19 (FMVDNEAIYDI; listed as Homo sapiens) [compound 19] | ″++++″ (≥75% = ++++) |
| 473 (AMATESILHFA; listed as Homo sapiens) [compound 473] | ″+++″ (≥50% = +++) |
| 92 (YLIPFTGIVGL; listed as Homo sapiens) [compound 92] | ″++″ (≥20% = ++) |
| 491 (GLNDRSDAV; listed as Homo sapiens) [compound 491] | ″++″ (≥20% = ++) |
| 148 (ALNPEIVSV; listed as Homo sapiens) [compound 148] | ″++″ (≥20% = ++) |
| 4 (GIMEHITKI; listed as Homo sapiens) [compound 4] | ″++++″ (≥75% = ++++) |
| 313 (VLFDDELLMV; listed as Homo sapiens) [compound 313] | ″+++″ (≥50% = +++) |
| 570 (ALANQIPTV; listed as Homo sapiens) [compound 570] | ″++″ (≥20% = ++) |
| 493 (GLLGEKTQDLIGV; listed as Homo sapiens) [compound 493] | ″+++″ (≥50% = +++) |
| 6 (VLVSDGVHSV; listed as Homo sapiens) [compound 6] | ″+++″ (≥50% = +++) |
| 623 (YLVEDIQHI; listed as Homo sapiens) [compound 623] | ″+++″ (≥50% = +++) |
